{
  "source": "paper PMC5932218",
  "about": "(Structure (London, England : 1993), 2018)",
  "key": {"calmodulin (CaM) [1]": {"molecular_target": "T1, calmodulin (CaM) (Homo sapiens, UniProt P0DP25)", "assay": "Isothermal titration calorimetry of CaM binding to NaV IG peptides", "conditions": "for effect of truncation of the IG peptide on CaM affinity: N- and C-terminally truncated IG peptides, Ca2+ present; for stoichiometry: 1:1 binding model"}, "[2]": {"assay": "Solubility of IG peptide in ITC buffers", "format": "physicochemical", "conditions": "under higher ionic strength conditions"}, "calmodulin (CaM) [3]": {"molecular_target": "T1, calmodulin (CaM)", "assay": "NMR analysis of Ca2+-loaded CaM binding to wild type versus mutant IG peptides", "conditions": "15N-enriched IG peptide with CaM, intermediate versus slow exchange"}, "calmodulin (CaM) [4]": {"test_system": "calmodulin (CaM)", "conditions": "ref (15); cited from earlier work"}, "[5]": {"molecular_target": "NaV1.2 inactivation gate peptide (aligned to NaV1.5 Q1483-A1529) (human)", "assay": "ITC"}, "[6]": {"molecular_target": "NaV1.5 inactivation gate peptide Q1483-A1529 (human) (UniProt Q14524)", "assay": "ITC"}, "[7]": {"molecular_target": "NaV1.6 inactivation gate peptide (aligned to NaV1.5 Q1483-A1529) (human)", "assay": "ITC"}, "[8]": {"molecular_target": "NaV1.5 inactivation gate peptide D1471-V1532 (full-length IG, 62 residues) (human) (UniProt Q14524)", "sequence (Q14524 1471-1532, tags left off)": "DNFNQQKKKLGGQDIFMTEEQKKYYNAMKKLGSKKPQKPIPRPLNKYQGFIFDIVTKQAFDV", "assay": "ITC"}, "[9]": {"molecular_target": "NaV1.4 inactivation gate peptide (aligned to NaV1.5 Q1483-A1529) (human)", "assay": "ITC"}, "[10]": {"molecular_target": "NaV1.5 inactivation gate peptide Q1483-A1529 (human) (UniProt Q14524)", "assay": "SEC-MALS"}, "[11]": {"molecular_target": "NaV1.5 inactivation gate peptide Q1483-A1529 (human) (UniProt Q14524)", "assay": "SAXS"}, "[12]": {"molecular_target": "NaV1.5 inactivation gate peptide Q1483-A1529 (human) (UniProt Q14524)", "assay": "NMR titration"}, "[13]": {"conditions": "ITC, in the presence of Ca2+, lower ionic strength buffer"}, "[14]": {"conditions": "ITC, 20 mM TRIS, 50 mM NaCl, 1 mM CaCl2, pH 7.4, triplicate, ± SD"}},
  "data": [
    {"substance": "D1471-V1532: 62-residue peptide corresponding to the full-length NaV1.5 inactivation gate (IG)", "values": [
      {"measurement": "CaM interaction in the absence of Ca2+", "setting": "calmodulin (CaM) [1]; ITC, absence of Ca2+", "result": "no interaction was observed"},
      {"measurement": "ΔH", "setting": "calmodulin (CaM) [1]; [13]", "result": "-9.3 ± 0.1", "unit": "kcal/mol"},
      {"measurement": "ΔS", "setting": "calmodulin (CaM) [1]; [13]", "result": "5.2 ± 1.1", "unit": "cal/mol•deg"},
      {"measurement": "solubility", "setting": "[2]", "result": "limited solubility"}
    ]},
    {"substance": "D1523: NaV1.5 IG peptide with the C terminus truncated to D1523", "values": [
      {"measurement": "effect of truncation of the IG peptide on CaM affinity", "setting": "calmodulin (CaM) [1]; ITC", "result": "reduced affinity into the μM range"}
    ]},
    {"substance": "H-GPGSQDIFMTEEQKKYYNAMKKLGSKKPQKPIPRPLNKIQGIVFDFVTQQA-OH [NaV 1.6]", "values": [
      {"measurement": "stoichiometry", "setting": "calmodulin (CaM) [1]; [14]", "result": "1.03 ± 0.01"},
      {"measurement": "ΔH", "setting": "calmodulin (CaM) [1]; [14]", "result": "-9.0 ± 0.2", "unit": "kcal/mol"},
      {"measurement": "ΔS (cal/mol•deg)", "setting": "calmodulin (CaM) [1]; [14]", "result": "2.5 ± 1.1", "unit": "cal/mol•deg"},
      {"measurement": "Kd", "setting": "calmodulin (CaM) [1]; SD", "result": "82 ± 20", "unit": "nM"}
    ]},
    {"substance": "H-GPGSQDIFMTEEQKKYYNAMKKLGSKKPQKPIPRPQNKIQGMVYDLVTKQA-OH [NaV 1.4]", "values": [
      {"measurement": "stoichiometry", "setting": "calmodulin (CaM) [1]; [14]", "result": "1.06 ± 0.01"},
      {"measurement": "ΔH", "setting": "calmodulin (CaM) [1]; [14]", "result": "-8.8 ± 0.3", "unit": "kcal/mol"},
      {"measurement": "ΔS (cal/mol•deg)", "setting": "calmodulin (CaM) [1]; [14]", "result": "3.8 ± 1.3", "unit": "cal/mol•deg"}
    ]},
    {"substance": "IG peptide double mutant: IG peptide with both the Y1494L (Site A) and F1522L (Site B) mutations", "values": [
      {"measurement": "affinity of CaM for the variant IG peptide relative to WT", "setting": "calmodulin (CaM) [3]", "result": "significant reduction in the affinity"}
    ]},
    {"substance": "Q1483: NaV1.5 IG peptide with the N terminus truncated to Q1483", "values": [
      {"measurement": "effect of truncation of the IG peptide on CaM affinity", "setting": "calmodulin (CaM) [1]; ITC", "result": "no effect on CaM affinity"}
    ]},
    {"substance": "T1526: NaV1.5 IG peptide with the C terminus truncated to T1526", "values": [
      {"measurement": "effect of truncation of the IG peptide on CaM affinity", "setting": "calmodulin (CaM) [1]; ITC", "result": "reduced affinity into the μM range"}
    ]},
    {"substance": "Y1494A: Y1494A site A mutant of the IG from a previous study", "values": [
      {"measurement": "effect of Y1494A site A mutation on CaM affinity", "setting": "calmodulin (CaM) [4]", "result": "substantially reduced"}
    ]},
    {"substance": "calmodulin (CaM), Ca2+-loaded unless stated (from UniProt P0DP25 1-149) (natural protein)", "values": [
      {"measurement": "stoichiometry N", "setting": "[5]", "result": 1.02},
      {"measurement": "dH", "setting": "[6]", "result": -5.8, "unit": "kcal/mol"},
      {"measurement": "Kd", "setting": "[7]", "result": 82, "unit": "nM"},
      {"measurement": "stoichiometry N", "setting": "[7]", "result": 1.03},
      {"measurement": "dH", "setting": "[8]", "result": -9.3, "unit": "kcal/mol"},
      {"measurement": "stoichiometry N", "setting": "[9]", "result": 1.06},
      {"measurement": "stoichiometry N", "setting": "[10]", "result": 1},
      {"measurement": "stoichiometry N", "setting": "[11]", "result": 1},
      {"measurement": "stoichiometry N", "setting": "[12]", "result": 1}
    ]}
  ]
}
